Reference: the supplement of paper PMC10567573

B1: CDC25A (parent)
chain: QLIDPDENKENEAFEFKKPVRPVS
B2: PTPN9 (parent)
chain: IDFLRVVRNQQSLAVSNMGARSKG

Variants of: B1
Assay: protein stability index of a GFP-peptide fusion (GPS, HEK-293T) (PSI 1-6); higher = more stable
Details: c terminus: a fixed tail appended
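Note: lentivirally expressed fusions sorted by FACS into six bins by GFP to DsRed ratio, PSI derived from sequencing read proportions per bin multiplied by bin number.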

Protein stability index of substitutions, site by site:
K9: H 4.18 | L 3.51 | W 3.82 | G 4.2 | V 4.83 | M 4.09 | E 4.62
P5: A 3.99 | N 4.06 | C 4.12 | T 3.61 | K 3.95 | D 3.92 | S 3.25 | H 3.61
P22: A 3.23 | H 3.38 | C 4.98
D4: R 3.3 | Y 3.84 | L 3.91 | S 3.58 | G 3.56 | M 3.94 | V 3.44 | A 3.67 | W 3.45
P19: R 3.85 | Y 3.07
F16: E 4.18 | V 4.39 | P 3.83 | T 4.48 | A 4.03
D6: M 4.14 | S 3.74 | K 3.87 | Y 4.02 | T 3.87 | V 3.83 | A 3.75 | N 4.4 | Q 4.6
N11: C 4.23 | P 4.49 | S 4.22 | L 4.65
Q1: W 2.44 | Y 2.32 | L 2.93 | H 4.72 | I 3.39 | R 3.44 | E 4.56 | M 3.97 | V 3.6
S24: H 2.87 | G 3.54 | Y 3.73 | C 3.5 | L 3.21
I3: L 3.15 | E 4.74 | R 4.75
E15: Y 3.02 | L 3.36 | N 3.13 | Q 4.08 | I 3.7 | W 3.54
V23: E 4.1 | N 3.51 | K 3.85 | P 3.52 | A 4.32 | Q 4.04 | H 4.05 | M 2.46 | Y 3.32
E12: S 4.16 | I 3.34 | Q 3.85 | K 3.84 | T 3.94 | G 4.61
L2: E 5.02 | S 4.16 | V 3.29 | Q 4.41 | K 4.29 | H 4.54 | I 2.73
E7: Q 3.58 | T 4.15 | D 3.97 | W 3.3 | A 4.25 | F 3.63
V20: E 4.04 | F 3.71 | G 3.97 | Q 3.79 | R 3.73 | L 2.85
F14: T 3.73 | P 4.92 | Y 4.12
A13: W 3.02 | C 3.52 | K 3.63 | V 2.88 | T 3.9 | F 3.02 | L 3.73 | P 4.25
K18: S 4.55 | W 3.73 | T 4.33 | H 3.82
R21: F 2.74 | C 4.34 | N 5 | L 3.8 | V 3.19 | M 3.81
K17: W 3.43 | C 2.78 | G 3.91 | S 3.48 | F 3.88 | E 3.46 | Y 3.7
N8: Q 4.95 | T 4.61 | A 4.31 | Y 3.59 | C 4.45
E10: F 3.12 | C 3.84 | L 3.97 | I 4.13 | D 3.98 | N 3.78 | R 4.43

Variants of: B2
Assay: as above
Details: c terminus: a fixed tail appended

Protein stability index, by site and new letter:
I1: V 3.03 | R 3.35 | S 3.1 | K 3.59 | E 4 | F 2.75 | L 2.95 | T 3.43 | M 2.96 | W 2.88 | C 2.8 | A 3.18 | Y 3.47 | P 4.25 | N 3.83 | Q 4.35 | H 3.96 | G 3.72 | D 4.38
R8: P 2.51 | T 2.13 | Y 1.78 | C 2.27 | D 3.22 | F 1.47 | G 2.37 | E 3 | W 1.94 | N 2.27 | M 1.46 | V 1.88 | H 2.32 | A 2.54 | I 2.65 | L 2.04 | S 1.8 | K 2.26 | Q 2.32
V7: Q 2.97 | I 2.41 | E 3.73 | F 1.84 | T 2.98 | Y 2.23 | S 3.61 | D 3.16 | M 2.03 | P 2.94 | C 3.07 | H 3.26 | A 3.7 | L 1.85 | N 3.53 | W 2.91 | K 2.66 | R 3.37 | G 2.96
V6: D 3.26 | N 3.35 | H 2.67 | F 2.26 | A 3.12 | I 1.99 | S 3.36 | Y 2.13 | L 2.5 | T 3.23 | E 3.36 | R 2.38 | M 1.99 | C 2.42 | P 3.31 | K 2.8 | W 2.74 | Q 2.8 | G 3.53
L4: Y 1.89 | V 2.6 | M 2.48 | S 3.6 | K 3.25 | H 3.35 | F 2.3 | Q 3.37 | N 3.48 | W 1.72 | G 3.69 | E 4.22 | P 3.86 | I 1.69 | T 3.33 | A 3.04 | R 3.06 | C 2.94 | D 4.58
D2: K 1.42 | A 1.82 | Q 1.88 | P 2.54 | E 2.54 | S 2.55 | V 2.84 | G 2.64 | L 1.53 | R 2.03 | F 2.33 | N 2.06 | Y 1.78 | I 2.35 | W 2.16 | M 1.38 | T 2.05 | C 2.06 | H 2.41
Q10: S 1.43 | L 2.2 | N 2.39 | T 2.4 | R 2.19 | D 2.63 | K 2.27 | E 2.87 | V 2.02 | F 2.35 | G 3.19 | I 1.95 | H 2.49 | C 1.89 | W 2.02 | A 2.06 | P 2.74 | M 2.54 | Y 2.35
F3: W 2.17 | H 4.36 | Y 2.4 | A 3.55 | D 4.21 | G 4.02 | I 2.34 | E 4.29 | T 4.5 | L 2.47 | K 3.93 | C 3.89 | S 3.88 | M 2.75 | P 4.2 | Q 3.89 | V 3.78 | R 3.69 | N 4.45
R5: P 3.73 | T 2.45 | L 2.38 | G 2.81 | H 3.15 | Y 2.54 | A 2.06 | I 2.69 | D 3.71 | W 2 | Q 3.27 | E 3.47 | C 1.48 | K 2.39 | M 2.81 | S 3 | N 3.24 | F 2.88 | V 1.83
N9: E 2.67 | V 1.89 | T 2.28 | R 2.44 | I 1.67 | L 1.61 | Y 1.93 | P 2.78 | C 1.96 | M 1.88 | F 2.66 | G 2.3 | S 2.15 | A 1.94 | K 2.58 | H 2.57 | Q 2.14 | D 3.66
Q11: A 1.99
